Assay [1] concerns the target T1, AdipoR1 (Homo sapiens, UniProt Q96A54).
T1 construct: expressed in transfected cells; host or cells: Saccharomyces cerevisiae BY4742, GAL1-driven pYES260 plasmid
T1 sequence (Q96A54 1-375): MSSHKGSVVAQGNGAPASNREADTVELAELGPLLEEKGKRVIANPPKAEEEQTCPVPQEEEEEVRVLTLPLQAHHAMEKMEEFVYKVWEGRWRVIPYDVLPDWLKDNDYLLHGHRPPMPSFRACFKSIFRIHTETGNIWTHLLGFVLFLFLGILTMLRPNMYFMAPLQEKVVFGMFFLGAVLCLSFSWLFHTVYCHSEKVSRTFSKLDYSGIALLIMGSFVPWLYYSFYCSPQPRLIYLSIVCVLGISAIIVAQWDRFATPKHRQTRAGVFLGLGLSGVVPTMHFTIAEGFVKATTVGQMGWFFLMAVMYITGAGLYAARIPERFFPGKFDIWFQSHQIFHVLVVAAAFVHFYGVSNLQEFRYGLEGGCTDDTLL
Briefly: FET3-lacZ (pFET3-397) reporter repression in yeast expressing AdipoR1. The format is cell-based. The following applies: low levels of AdipoR1 (0.02% galactose). The text has this: IZH1-4 were cloned into pRS316-GAL1 via gap repair as previously described (Lyons et al., 2004). The triple hemaglutinin epitope (3×HA) tagged construct of the IZH2 gene was generated by replacing the ZRC1 promoter and open reading frame in the YCpZRC1-HA plasmid (MacDiarmid et al., 2002) with those of IZH2. This was accomplished by gap repair of Age I-digested YCpZRC1-HA to generate pIZH2-3×HA. This construct has the IZH2 gene driven by its native promoter and retains the ZRC1 terminator sequence. The native IZH2 promoter was then exchanged with the GAL1 promoter using gap repair of pIZH2-3×HA plasmids cut with EcoN I. AdipoR1 and AdipoR2 were amplified from cDNAs obtained from OpenBiosystems (Accession #: BC010743 and BC051858, respectively). PCR products were cloned into NcoI/BamHI digested pYES260 vector (Melcher, 2000) by gap repair allowing for GAL1-driven expression. Plasmids containing GAL1-driven the TAP (Tandem Affinity Purification) tagged NRG1 and NRG2 constructs were purchased from OpenBiosystems. […]
(§1) Assays and growth conditions. […] Cells were allowed to grow to mid-log phase at which time the activity of the FET3 gene was monitored using a FET3-lacZ promoter-reporter construct. lacZ activities are presented as a percentage of activity seen in untreated cells expressing the appropriate empty expression vector control. […]

The subject of assay [2] is FET3. Briefly: FET3-lacZ reporter in wild type yeast carrying empty expression plasmid. The format is cell-based, Saccharomyces cerevisiae. The following applies: no human PAQR. The text has this: Assays and growth conditions. Strains were maintained using standard protocol and grown in synthetic defined (SD) media with the appropriate amino acids to match the auxotrophies of the individual strains. Low Iron Medium (LIM) contains EDTA to limit iron-bioavailability and its composition has been previously described (Kupchak et al., 2007). […] In brief, overnights of cells grown in SD-glucose media were re-inoculated into iron-deficient LIM to induce the expression of FET3. 2% galactose was used as a carbon source to induce full expression of PAQR genes driven by the GAL1 promoter, while 0.05% galactose/1.95% raffinose was used for reduced PAQR expression. All ligands were added to the growth medium upon re-inoculation into LIM. For experiments in which steroids were added as ligands, steroids were added from ethanol stocks and “untreated” controls are actually treated with an equal volume of ethanol to control for vehicle effects. Cells were allowed to grow to mid-log phase at which time the activity of the FET3 gene was monitored using a FET3-lacZ promoter-reporter construct. lacZ activities are presented as a percentage of activity seen in untreated cells expressing the appropriate empty expression vector control. For individual experiments, each data point has been done in triplicate and the error bars represent +/−1 standard deviation. All experiments were performed at least three times and a representative experiment is shown. EC50 values were obtained using the web-based BioDataFit software using sigmoidal curve-fitting. (web site changbioscience.com/stat/ec50.html)

For assay [3], the system named is AdipoR2. Briefly: FET3-lacZ (pFET3-397) reporter repression in yeast expressing AdipoR2. The format is cell-based, human.
Source text: IZH1-4 were cloned into pRS316-GAL1 via gap repair as previously described (Lyons et al., 2004). The triple hemaglutinin epitope (3×HA) tagged construct of the IZH2 gene was generated by replacing the ZRC1 promoter and open reading frame in the YCpZRC1-HA plasmid (MacDiarmid et al., 2002) with those of IZH2. This was accomplished by gap repair of Age I-digested YCpZRC1-HA to generate pIZH2-3×HA. This construct has the IZH2 gene driven by its native promoter and retains the ZRC1 terminator sequence. The native IZH2 promoter was then exchanged with the GAL1 promoter using gap repair of pIZH2-3×HA plasmids cut with EcoN I. AdipoR1 and AdipoR2 were amplified from cDNAs obtained from OpenBiosystems (Accession #: BC010743 and BC051858, respectively). PCR products were cloned into NcoI/BamHI digested pYES260 vector (Melcher, 2000) by gap repair allowing for GAL1-driven expression. Plasmids containing GAL1-driven the TAP (Tandem Affinity Purification) tagged NRG1 and NRG2 constructs were purchased from OpenBiosystems.
Most experiments were performed in a defined EDTA-containing medium known as low iron medium (LIM) (Eide et al., 1992). Iron-deficiency and repletion were generated by adding either 1 μM or 1 mM of FeCl3, respectively, to LIM. 2% galactose was used to fully induce GAL1-driven gene overexpression. Total sugar concentration was maintained at 2% by the addition of raffinose in those experiments in which the % galactose was modulated to decrease expression levels. Cells were allowed to grow to mid-log phase in LIM and β-galactosidase assays on permeabilized yeast were performed as previously described (Lyons et al., 2000). […]
as §1

Sequence of AdipoR2 (Q86V24 76-386 limits assumed): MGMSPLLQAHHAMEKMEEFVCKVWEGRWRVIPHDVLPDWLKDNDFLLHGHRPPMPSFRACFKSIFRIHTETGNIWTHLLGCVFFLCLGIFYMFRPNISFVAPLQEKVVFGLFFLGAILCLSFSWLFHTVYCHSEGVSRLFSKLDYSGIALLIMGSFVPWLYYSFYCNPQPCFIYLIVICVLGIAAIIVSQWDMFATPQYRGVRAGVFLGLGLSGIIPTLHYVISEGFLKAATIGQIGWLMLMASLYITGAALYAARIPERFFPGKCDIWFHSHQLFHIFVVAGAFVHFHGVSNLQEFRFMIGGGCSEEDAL

B1: Adiponectin: insulin-sensitizing hormone, agonist of the human adiponectin receptors AdipoR1 and AdipoR2 (protein, UniProt Q15848 19-244, looked up)
Adiponectin: ETTTQGPGVLLPLPKGACTGWMAGIPGHPGHNGAPGRDGRDGTPGEKGEKGDPGLIGPKGDIGETGVPGAEGPRGFPGIQGRKGEPGEGAYVYRSAFSVGLETYVTIPNMPIRFTKIFYNQQNHYDGSTGKFHCNIPGLYYFAYHITVYMKDVKVSLFKKDKAMLFTYDQYQENNVDQASGSVLLHLEVGDQVWLQVYGEGERNGLYADNDNDSTFTGFLLYHDTN
In the case of B1, the “pFET3-397 repression by adiponectin” value in assay [1] and in assay [3] (AdipoR2 in 2% galactose) was “repressed in a dose-dependent manner” each time. Moreover, in assay [2], the “effect of ligand on FET3 in cells carrying empty expression plasmid” value was “did not respond”. Besides, the EC50 in assay [3] (AdipoR2, FET3 repression in iron-deficient LIM) turned out to be 2.4 pM.

Usually EC50 stands for the concentration needed to bring the measured effect to its halfway point. Low values mean an effect from little substance, high ones a need for much substance.
